The values below come from patent US20230285578A1 (INDIANA UNIVERSITY RESEARCH AND TECHNOLOGY, published 2023).

Residue numbers refer to the chain shown, from its start. Starred links: 1 amine or outer side, 2 acyl side, 3 side chain; linkers in the order of their positions; H or OH if unused. Groups on a side chain read outwards from the residue. No end group written: not given here. *: point of attachment. C18 diacid = O=C(O)CCCCCCCCCCCCCCCCC(=O)*; γGlu = O=C(O)[C@H](CCC(=O)[*:2])N[*:1]; AEEA = NCCOCCOCC(=O)O

Assay in all cases: cell-based or functional assay
The target of assay [1] is T1, PTH1 receptor (UniProt Q03431 27-593, limits assumed).
T1 sequence (looked up): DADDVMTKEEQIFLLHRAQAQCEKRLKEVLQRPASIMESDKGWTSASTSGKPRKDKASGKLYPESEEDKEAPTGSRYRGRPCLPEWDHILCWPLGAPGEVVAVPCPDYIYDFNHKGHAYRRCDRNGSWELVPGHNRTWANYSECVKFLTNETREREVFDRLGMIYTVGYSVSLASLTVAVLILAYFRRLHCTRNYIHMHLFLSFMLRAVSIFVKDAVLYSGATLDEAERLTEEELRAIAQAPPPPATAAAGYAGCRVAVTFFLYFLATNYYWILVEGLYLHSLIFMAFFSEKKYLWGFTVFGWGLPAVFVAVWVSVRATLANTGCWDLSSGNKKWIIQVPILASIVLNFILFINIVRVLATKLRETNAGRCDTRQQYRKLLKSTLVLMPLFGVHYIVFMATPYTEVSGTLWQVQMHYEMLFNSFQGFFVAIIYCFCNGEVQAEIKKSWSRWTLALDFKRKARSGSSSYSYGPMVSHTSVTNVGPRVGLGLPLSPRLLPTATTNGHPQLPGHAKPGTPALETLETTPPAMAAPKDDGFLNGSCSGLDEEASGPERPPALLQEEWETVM

The target in a further assay is T2, PTH1 receptor, Q03431.
T2 chain: T1 sequence (looked up)

Assay [2] addresses T1, PTH1 receptor. The source holds these as a separate data set.
Assay [3] deals with T1, PTH1 receptor. This is another data set of the same source.
Assay [4] addresses T1, PTH1 receptor. This is another data set of the same source.
For assay [5], the target named is T1, PTH1 receptor. The source holds these as a separate data set.
Assay [6] deals with T1, PTH1 receptor. This is another data set of the same source.
In assay [7] the target is T1, PTH1 receptor. This is another data set of the same source.

B1: PTH(1-35)a, K35(γE-diacidC18) (peptide)
peptide: SVSEIQLMHNLGKHLNSMERVEWLRKKLQDVHNFX
modifications: Lys35 side chain acylated with γE-COC16H32CO2H (C18 diacid); C-terminal amide
Turning to B1, in the assay with PTH1 receptor [1], the “Potency EC50 (cAMP-responsive luciferase reporter, HEK293 cells co-transfected with the PTH1 receptor)” value (“Potency EC50” for short) came to 2.9 nM.

B2: SEQ ID NO: 118 (peptide)
peptide: SVSEIELMHNLGKHLNSMERVEWLRKKLQDVHK([γGlu-miniPEG-miniPEG-γGlu-C18 diacid])
modifications: ends and bridges not checked
Molecule B2 came in with an EC50 pM (cAMP Hunter Teriparatide Bioassay, CHO-K1 PTHR1 cells; FIG. 13A) with PTH1 receptor, Q03431 of 80.3 pM.

B3: PTH(1-34), dK-1(γE-diacidC18), N(Me)G0 (peptide)
peptide: XXSVSEIQLMHNLGKHLNSMERVEWLRKKLQDVHNF
modifications: d-Lys at position -1 with side chain acylated with γE-COC16H32CO2H; N-methyl-Gly (sarcosine) at position 0; C-terminal free acid
Consider B3, for which the “Potency EC50” value in the assay with PTH1 receptor [1] was 45.5 nM.

B4: PTH(1-33), A8, K33(γE-2xOEG-γE-diacidC18) (peptide)
peptide: SVSEIQLAHNLGKHLNSMERVEWLRKKLQDVHK([γGlu-AEEA-AEEA-γGlu-C18 diacid])-OH
modifications: N-terminus assumed
SMILES: CC[C@H](C)[C@H](NC(=O)[C@H](CCC(=O)O)NC(=O)[C@H](CO)NC(=O)[C@@H](NC(=O)[C@@H](N)CO)C(C)C)C(=O)N[C@@H](CCC(N)=O)C(=O)N[C@@H](CC(C)C)C(=O)N[C@@H](C)C(=O)N[C@@H](Cc1c[nH]cn1)C(=O)N[C@@H](CC(N)=O)C(=O)N[C@@H](CC(C)C)C(=O)NCC(=O)N[C@@H](CCCCN)C(=O)N[C@@H](Cc1c[nH]cn1)C(=O)N[C@@H](CC(C)C)C(=O)N[C@@H](CC(N)=O)C(=O)N[C@@H](CO)C(=O)N[C@@H](CCSC)C(=O)N[C@@H](CCC(=O)O)C(=O)N[C@@H](CCCNC(=N)N)C(=O)N[C@H](C(=O)N[C@@H](CCC(=O)O)C(=O)N[C@@H](Cc1c[nH]c2ccccc12)C(=O)N[C@@H](CC(C)C)C(=O)N[C@@H](CCCNC(=N)N)C(=O)N[C@@H](CCCCN)C(=O)N[C@@H](CCCCN)C(=O)N[C@@H](CC(C)C)C(=O)N[C@@H](CCC(N)=O)C(=O)N[C@@H](CC(=O)O)C(=O)N[C@H](C(=O)N[C@@H](Cc1c[nH]cn1)C(=O)N[C@@H](CCCCNC(=O)CC[C@H](NC(=O)COCCOCCNC(=O)COCCOCCNC(=O)CC[C@H](NC(=O)CCCCCCCCCCCCCCCCC(=O)O)C(=O)O)C(=O)O)C(=O)O)C(C)C)C(C)C
B4: the “in vitro potency (fold reduction against the analog without A8)” value with PTH1 receptor [2] is ~100 fold.

B5: PTH(1-33), K33(γE-2xOEG-γE-diacidC18) (peptide)
peptide: SVSEIQLMHNLGKHLNSMERVEWLRKKLQDVHX
modifications: Lys33 side chain acylated with γE-(miniPEG)2-γE-COC16H32CO2H; C-terminal free acid
B5: the “EC50 pM (cAMP Hunter Teriparatide Bioassay, CHO-K1 PTHR1 cells; FIG. 8A)” value in the assay with PTH1 receptor [3] stood at 31 pM. Besides, the “EC50 pM (cAMP Hunter Teriparatide Bioassay, CHO-K1 PTHR1 cells; FIG. 11)” value in the assay with PTH1 receptor [4] was 10 pM. Besides, in the assay with PTH1 receptor [5], the “EC50 pM (cAMP Hunter Teriparatide Bioassay, CHO-K1 PTHR1 cells; FIG. 12)” value was 36.6 pM. Moreover, the “EC50 pM (cAMP Hunter Teriparatide Bioassay, CHO-K1 PTHR1 cells; FIG. 13A)” value with PTH1 receptor [6] was determined as 10.7 pM. In addition, the “EC50 pM (cAMP Hunter Teriparatide Bioassay, CHO-K1 PTHR1 cells; FIG. 13B)” value in the assay with PTH1 receptor [7] stood at 19.3 pM.

B6: SEQ ID NO: 110 (peptide)
peptide: B5 peptide with M18X
modifications: site-specifically oxidised to methionine sulfoxide (position not given)
With B6, in the assay with PTH1 receptor [5], the “EC50 pM (cAMP Hunter Teriparatide Bioassay, CHO-K1 PTHR1 cells; FIG. 12)” value stood at 41.7 pM.

B7: SEQ ID NO: 124 (peptide)
peptide: SVSEIQLMHNLGKHLNSMERVEWLRKKLEDVHK([γGlu-miniPEG-miniPEG-γGlu-C18 diacid])
modifications: ends and bridges not checked
In the case of B7, the EC50 pM (cAMP Hunter Teriparatide Bioassay, CHO-K1 PTHR1 cells; FIG. 13B) with PTH1 receptor, Q03431 turned out to be 43.1 pM.

B8: SEQ ID NO: 120 (peptide)
peptide: SVSEIQLMHDLGKHLNSMERVEWLRKKLQDVHK([γGlu-miniPEG-miniPEG-γGlu-C18 diacid])
modifications: ends and bridges not checked
In the assay with PTH1 receptor, Q03431, B8 returned an EC50 pM (cAMP Hunter Teriparatide Bioassay, CHO-K1 PTHR1 cells; FIG. 13A) of 10.9 pM.

B9: SEQ ID NO: 122 (peptide)
peptide: SVSEIQLMHNLGKHLDSMERVEWLRKKLQDVHK([γGlu-miniPEG-miniPEG-γGlu-C18 diacid])
modifications: ends and bridges not checked
On to B9, for which the EC50 pM (cAMP Hunter Teriparatide Bioassay, CHO-K1 PTHR1 cells; FIG. 13B) in the assay with PTH1 receptor, Q03431 turned out to be 14.3 pM.

B10: PTH(1-35)a, dK-1(γE-diacidC18), N(Me)G0, K35(γE-diacidC18) (peptide)
peptide: XXSVSEIQLMHNLGKHLNSMERVEWLRKKLQDVHNFX
modifications: d-Lys at position -1 with side chain acylated with γE-COC16H32CO2H; N-methyl-Gly (sarcosine) at position 0; Lys35 side chain acylated with γE-COC16H32CO2H; C-terminal amide
With B10, the “Potency EC50” value with PTH1 receptor [1] stood at 200 nM.
